Reference: patent US20130338339A1

Tests used:
[1] = biological target: polyclonal human IgG (Gammanorm, Octapharma) (human); assay: breakthrough on a column of immobilised ligand, 1 mg/ml IgG, pH 7.4, residence time 2.4 min, ligand density 9.6 mg/ml
[2] = biological target: polyclonal human IgG (Gammanorm, Octapharma) (human); assay: gradient elution pH 6 to pH 3 (0.1 M citrate) from a column of immobilised ligand, pH at peak apex
[3] = biological target: polyclonal human IgG (Gammanorm, Octapharma) (human); assay: gradient elution pH 6 to pH 3 from a column of immobilised ligand; polyclonal IgG (Gammanorm) shows the biggest difference

Qb10% (dynamic binding capacity at 10% breakthrough) [1]: 36.4 mg/ml resin | Qb80% (dynamic binding capacity at 80% breakthrough) [1]: 65 mg/ml resin | elution pH, hIgG (first peak) [2]: 5.11 pH | elution pH, hIgG (second peak) [2]: 4.61 pH | increase in elution pH compared to Z4 [3]: > 1 >pH unit
Substance: Mutant Z(H18S)4: ligand tetramer containing four copies of protein Z, each containing the H18S substitution (designed binder)
